US20120316071A1 (published 2012)

How the values were obtained:
[1] = biological target: T1, Recombinant Human DLL4 (delta-like protein 4) (human, UniProt Q9NR61 27-529); test: ELISA, DLL4 coated on plate, Fab in solution, absorbance at 450 nm
T1 construct: Bought recombinant human DLL4 (R&D Systems Cat#1506-D4/CF); also called rHuman DLL4; Delta-like 4

[2] = biological target: T1, Recombinant Human DLL4 (delta-like …); test: 96-well plate ECL binding assay, DLL4 immobilised, Fab in solution
Recombinant Human DLL4 [3] = biological target: T2, Recombinant Human DLL4 (human, UniProt Q9NR61 27-524); test: ELISA on plate-coated DLL4, Fab at 0.74 nM (3-fold serial dilution)
T2 construct: Bought recombinant human DLL4 (R&D Systems 1506-D4/CF); also called delta-like protein 4; rHuman DLL4

Recombinant Human DLL4 [4] = biological target: T2, Recombinant Human DLL4; test: ECL (MSD) binding assay, Fab on immobilised recombinant human DLL4; Fab concentration not given in the table
Recombinant Human DLL4 [5] = biological target: T2, Recombinant Human DLL4; test: ELISA on plate-coated DLL4, Fab at 6.67 nM (3-fold serial dilution)
Recombinant Human DLL4 [6] = biological target: T2, Recombinant Human DLL4; test: ELISA on plate-coated DLL4, Fab at 20 nM (3-fold serial dilution)
Recombinant Human DLL4 [7] = biological target: T2, Recombinant Human DLL4; test: ELISA on plate-coated DLL4, Fab at 2.22 nM (3-fold serial dilution)

| Binder | ELISA (Avgerage signal-noise) [1] | ECL signal [2] | ELISA signal (Recombinant Human DLL4 [3]) | ECL signal (Recombinant Human DLL4 [4]) | ELISA signal (Recombinant Human DLL4 [5]) | ELISA signal (Recombinant Human DLL4 [6]) | ELISA signal (Recombinant Human DLL4 [7]) |
| --- | --- | --- | --- | --- | --- | --- | --- |
| Fab VH1-46_IGHD6-6*01_IGHJ1*01 S102A/S103P/S104F/H111F & L6_IGKJ1*01 S28N/S30D/S31H N53E (Fab, V domains shown, Fab with CH1 (plasmid A, His6 and Flag tags) and kappa CL (plasmid C); also called H:APFF & L:NDH N53E) VH: QVQLVQSGAEVKKPGASVKVSCKASGYTFTSYYMHWVRQAPGQGLEWMGIINPSGGSTSYAQKFQGRVTMTRDTSTSTVYMELSSLRSEDTAVYYCAREEYAPFSAEYFQFWGQGTLVTVSS VL: EIVLTQSPATLSLSPGERATLSCRASQNVDHYLAWYQQKPGQAPRLLIYDASERATGIPARFSGSGSGTDFTLTISSLEPEDFAVYYCQQRSNWPPWTFGQGTKVEIKR | 0.204 | 17600 | – | – | – | – | – |
| Fab VH1-46_IGHD6-6*01_IGHJ1*01 S102A/S103P/S104F/H111F & L6_IGKJ1*01 S28N/S30D/S31H N53H (Fab, V domains shown, Fab with CH1 (plasmid A, His6 and Flag tags) and kappa CL (plasmid C); also called H:APFF & L:NDH N53H) VH: QVQLVQSGAEVKKPGASVKVSCKASGYTFTSYYMHWVRQAPGQGLEWMGIINPSGGSTSYAQKFQGRVTMTRDTSTSTVYMELSSLRSEDTAVYYCAREEYAPFSAEYFQFWGQGTLVTVSS VL: EIVLTQSPATLSLSPGERATLSCRASQNVDHYLAWYQQKPGQAPRLLIYDASHRATGIPARFSGSGSGTDFTLTISSLEPEDFAVYYCQQRSNWPPWTFGQGTKVEIKR | 0.23 | 20100 | – | – | – | – | – |
| Fab VH1-46_IGHD6-6*01_IGHJ1*01 S102A/S103P/S104F/H111F & L6_IGKJ1*01 S28N/S30D/S31H N53G (Fab, V domains shown, Fab with CH1 (plasmid A, His6 and Flag tags) and kappa CL (plasmid C); also called H:APFF & L:NDH N53G) VH: QVQLVQSGAEVKKPGASVKVSCKASGYTFTSYYMHWVRQAPGQGLEWMGIINPSGGSTSYAQKFQGRVTMTRDTSTSTVYMELSSLRSEDTAVYYCAREEYAPFSAEYFQFWGQGTLVTVSS VL: EIVLTQSPATLSLSPGERATLSCRASQNVDHYLAWYQQKPGQAPRLLIYDASGRATGIPARFSGSGSGTDFTLTISSLEPEDFAVYYCQQRSNWPPWTFGQGTKVEIKR | 0.163 | 20600 | – | – | – | – | – |
| Fab VH1-46_IGHD6-6*01_IGHJ1*01 S102A/S103P/S104F/H111F & L6_IGKJ1*01 S28N/S30D/S31H S52L (Fab, V domains shown, Fab made in E. coli; The rest is CH1 from plasmid A (His6 and Flag tags) and kappa CL from plasmid C; also called H:APFF & L:NDH S52L) VH: QVQLVQSGAEVKKPGASVKVSCKASGYTFTSYYMHWVRQAPGQGLEWMGIINPSGGSTSYAQKFQGRVTMTRDTSTSTVYMELSSLRSEDTAVYYCAREEYAPFSAEYFQFWGQGTLVTVSS VL: EIVLTQSPATLSLSPGERATLSCRASQNVDHYLAWYQQKPGQAPRLLIYDALNRATGIPARFSGSGSGTDFTLTISSLEPEDFAVYYCQQRSNWPPWTFGQGTKVEIKR | 0.285 | 17800 | – | – | – | – | – |

Now from value to binder:

| ELISA (Avgerage signal-noise) [1] | ECL signal [2] | ELISA signal (Recombinant Human DLL4 [3]) | ECL signal (Recombinant Human DLL4 [4]) | ELISA signal (Recombinant Human DLL4 [5]) | ELISA signal (Recombinant Human DLL4 [6]) | ELISA signal (Recombinant Human DLL4 [7]) | Binder |
| --- | --- | --- | --- | --- | --- | --- | --- |
| – | – | 0.028 | 1760 | 0.212 | 0.39 | 0.069 | Fab VH1-46_IGHD6-6*01_IGHJ1*01 S102A/S103P/S104F/H111F I51A/N52L/S54T/G56H & L6_IGKJ1*01 S28N/S30D/S31H S52L/A55G (Fab, V domains shown, Fab expressed in E. coli: VH joined to CH1 from Plasmid A (His6 and Flag tags), VL joined to kappa CL from Plasmid C; also called H:APFF ALTH & L:NDH LG) VH: QVQLVQSGAEVKKPGASVKVSCKASGYTFTSYYMHWVRQAPGQGLEWMGIALPTGHSTSYAQKFQGRVTMTRDTSTSTVYMELSSLRSEDTAVYYCAREEYAPFSAEYFQFWGQGTLVTVSS VL: EIVLTQSPATLSLSPGERATLSCRASQNVDHYLAWYQQKPGQAPRLLIYDALNRGTGIPARFSGSGSGTDFTLTISSLEPEDFAVYYCQQRSNWPPWTFGQGTKVEIKR |
| 0.263 | 20100 | – | – | – | – | – | Fab VH1-46_IGHD6-6*01_IGHJ1*01 S102A/S103P/S104F/H111F & L6_IGKJ1*01 S28N/S30D/S31H S52T (Fab, V domains shown, Fab with CH1 (plasmid A, His6 and Flag tags) and kappa CL (plasmid C); also called H:APFF & L:NDH S52T) VH: QVQLVQSGAEVKKPGASVKVSCKASGYTFTSYYMHWVRQAPGQGLEWMGIINPSGGSTSYAQKFQGRVTMTRDTSTSTVYMELSSLRSEDTAVYYCAREEYAPFSAEYFQFWGQGTLVTVSS VL: EIVLTQSPATLSLSPGERATLSCRASQNVDHYLAWYQQKPGQAPRLLIYDATNRATGIPARFSGSGSGTDFTLTISSLEPEDFAVYYCQQRSNWPPWTFGQGTKVEIKR |
| – | – | 0.024 | 1840 | 0.232 | 0.391 | 0.069 | Fab VH1-46_IGHD6-6*01_IGHJ1*01 S102A/S103P/S104F/H111F I51A/N52L/S54T/G56H & L6_IGKJ1*01 S28N/S30D/S31H (Fab, V domains shown, Fab expressed in E. coli: VH joined to CH1 from Plasmid A (His6 and Flag tags), VL joined to kappa CL from Plasmid C; also called H:APFF ALTH & L:NDH) VH: QVQLVQSGAEVKKPGASVKVSCKASGYTFTSYYMHWVRQAPGQGLEWMGIALPTGHSTSYAQKFQGRVTMTRDTSTSTVYMELSSLRSEDTAVYYCAREEYAPFSAEYFQFWGQGTLVTVSS VL: EIVLTQSPATLSLSPGERATLSCRASQNVDHYLAWYQQKPGQAPRLLIYDASNRATGIPARFSGSGSGTDFTLTISSLEPEDFAVYYCQQRSNWPPWTFGQGTKVEIKR |
